The target in this assay is T1, aCBF5 (P. abyssi, UniProt Q9V1A5 1-334).
T1 construct: aCBF5, archaeal H/ACA sRNP pseudouridine synthase, P. abyssi; also called pseudouridine synthase aCBF5; source: purified recombinant proteins
T1 sequence (looked up): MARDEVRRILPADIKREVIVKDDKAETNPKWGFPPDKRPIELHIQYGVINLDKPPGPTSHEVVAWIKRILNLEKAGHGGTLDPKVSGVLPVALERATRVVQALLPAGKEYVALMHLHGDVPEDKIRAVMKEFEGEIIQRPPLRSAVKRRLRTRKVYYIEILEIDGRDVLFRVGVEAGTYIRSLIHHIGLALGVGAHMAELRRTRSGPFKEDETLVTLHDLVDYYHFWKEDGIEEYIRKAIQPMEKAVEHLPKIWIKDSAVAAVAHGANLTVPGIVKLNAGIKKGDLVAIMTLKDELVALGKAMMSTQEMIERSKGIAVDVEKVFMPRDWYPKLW
Briefly: native gel or EMSA; 32P 5' end-labelled sRNA Pab21 or Pab91 (~50 fmol) incubated with the proteins (200 nM each) in buffer D (150 mM KCl, 1.5 mM MgCl2, 0.2 mM EDTA, 20 mM HEPES pH 7.9) at 65°C for 10 min; non-denaturing polyacrylamide gel; the proteins are seen only through the shift of the labelled sRNA. To be noted: both partners purified.

Results on 2 molecules are retold here after PMC3726423, “Comparative Study of Two Box H/ACA Ribonucleoprotein Pseudouridine-Synthases: Relation between Conformational Dynamics of the Guide RNA, Enzyme Assembly and Activity” (PLoS ONE, 2013).

Positions count from the first letter of the chain named. In names and notes the source's numbering stands.

B1: aNOP10 (natural protein, P. abyssi, UniProt Q9V0E3 1-60, looked up)
chain: MRFRIRKCPKCGRYTLKETCPVCGEKTKVAHPPRFSPEDPYGEYRRRLKRELLGIGRKEK
notes: aNOP10, archaeal H/ACA sRNP core protein, P. abyssi; source: purified recombinant proteins
In the case of B1, the binding result is recorded as “binds”.

B2: aNOP10 Y41A/Y44A (natural protein, P. abyssi, UniProt Q9V0E3 1-60, looked up)
chain: B1 chain with Y41A, Y44A
notes: aNOP10, P. abyssi, with two alanine substitutions in helix alpha1; also called aNOP10 mutant Y41A/Y44A; source: purified recombinant proteins
Take B2: the binding result is “binds”.
